Laboratory results published in patent US20230212587A1, “Mutant Hydroxyphenylpyruvate Dioxygenase Polypeptide, Encoding Gene Thereof and Use Therefor” (Beijing Dabeinong Biotechnology Co., Ltd., priority 2019, published 2023).

B1: BnHPPDm-F372G: Brassica napus HPPD mutant F372G, SEQ ID NO: 317 (protein)
chain: MGHENAAVCETQQHDDAASPGFKLVGFSKFVRKNPKSDKFKVKRFHHIEFWCGDATNVSRRFSWGLGMRFSAKSDLSTGNMVHASYLLTSGDLRFLFTAPYSPSLSAGEAQPSATASIPSFDHASCRSFFSSHGLGVRAVAIEVEDAESAFSISVANGAVPSSPPNVLNGAVTIAEVKLYGDVVLRYVSYYNGTVSFLPGFESVDDTSSFPLDYGIRRLDHAVGNVPELGPALTYLAGFTGFHQFAEFTADDVGTAESGLNSAVLANNDEMVLLPINEPVHGTKRKSQIQTFLEHNEGAGLQHLALMSEDIFRTLREMRKRSGVGGFDFMPSPPPTYYKNLKKRVGDVLSEEQIEECEELGILVDRDDQGTLLQIGTKPLGDRPTIFIEIIQRVGCMKRDEEGKVYQSGGCGGFGKGNFSELFKSIEEYEKTLEAKQLVG
modifications: BnHPPDm-F372G Amino Acid Sequence
B2: GmHPPDm-F372G: Glycine max HPPD mutant F372G, SEQ ID NO: 313 (protein)
chain: MPMYTPSLSAPSSNHIQPSVTLPLYITTTKLNLKQQHHTTPMPIPMCNEIQAQAQAQAQPGFKLVGFKNFVRTNPKSDRFQVNRFHHIEFWCTDATNASRRFSWGLGMPIVAKSDLSTGNQIHASYLLRSGDLSFLFSAPYSPSLSAGSSAASSASIPSFDAATCLAFAAKHGFGVRAIALEVADAEAAFSASVAKGAEPASPPVLVDDRTGFAEVRLYGDVVLRYVSYKDAAPQAPHADPSRWFLPGFEAAASSSSFPELDYGIRRLDHAVGNVPELAPAVRYLKGFSGFHEFAEFTAEDVGTSESGLNSVVLANNSETVLLPLNEPVYGTKRKSQIETYLEHNEGAGVQHLALVTHDIFTTLREMRKRSFLGGFEFMPSPPPTYYANLHNRAADVLTVDQIKQCEELGILVDRDDQGTLLQIGTKPVGDRPTIFIEIIQRIGCMVEDEEGKVYQKGACGGFGKGNFSELFKSIEEYEKTLEAKRTA
modifications: GmHPPDm-F372G Amino Acid Sequence
B3: OsHPPDm-F372G: Oryza sativa HPPD mutant F372G, SEQ ID NO: 311 (protein)
chain: MPPTPTPTATTGAVSAAAAAGENAGFRLVGHRRFVRANPRSDRFQALAFHHVELWCADAASAAGRFAFALGAPLAARSDLSTGNSAHASLLLRSASVAFLFTAPYGGDHGVGADAATTASIPSFSPGAARRFAADHGLAVHAVALRVADAADAFRASVAAGARPAFQPADLGGGFGLAEVELYGDVVLRFVSHPDGADAPFLPGFEGVSNPGAVDYGLRRFDHVVGNVPELAPVAAYISGFTGFHEFAEFTAEDVGTAESGLNSVVLANNAETVLLPLNEPVHGTKRRSQIQTYLDHHGGPGVQHIALASDDVLGTLREMRARSAMGGFEFLAPPPPNYYDGVRRRAGDVLSEEQINECQELGVLVDRDDQGVLLQIGTKPVGDRPTFFLEMIQRIGCMEKDESGQEYQKGGCGGFGKGNFSELFKSIEEYEKSLEAKQAPTVQGS
modifications: OsHPPDm-F372G Amino Acid Sequence
B4: CaHPPDm-F372G: Cicer arietinum HPPD mutant F372G, SEQ ID NO: 315 (protein)
chain: MGTIETQTGFKLVGFNNFVRTNPKSDRFKVKRFHHVEFWCPDATNTARRFSWGLGMPIVAKSDLSTGNQTHASYLLRSGDLNFLFTAAYSPSISLSAPHPTASIPSFSAPTSFAFSASHGLGVRAVAIEVDDAEFAYTTSVNHGAIPSSPPVVLDNRVKLAEVQLYGDVVLRYVSYNDPIETSNPNPNHWFLPGFEPVEETSSNQSIDFGIQRLDHAVGNVPELSSALNYVKQFTGFHEFAEFTAEDVGTSESGLNSTVLANNEETVLLPMNEPVYGTKRKSQIQTYLEHNEGAGLQHLALMSNDIFKTLREMRKRSGIGGFEFMPSPPPTYYSNLKKRVGDVLNDEQIKECEELGILVDKDDQGTLLQIGTKPVGDRPTIFIEIIQRVGCMLKDDEGKEYQKGGCGGFGKGNFSELFKSIEEYEKTLEIKRTA
modifications: CaHPPDm-F372G Amino Acid Sequence
B5: SiHPPDm-F372G: Setaria italica HPPD mutant F372G, SEQ ID NO: 307 (protein)
chain: MPPTPTPAAAAPGAAAAPAAGDQAAFRLVGHRGFVRVNPRSDRFHTLSFHHVELWCADATSAAGRFSFGLGAPLAARSDLSTGNSAHASLLLRSGSLAFLFTAPYAHGVDAATASLPSFSAPAARSFAADHGLAVRAIGLRVADAEDAFRASVAAGARPAFKPVELGLGFRLAEVELYGDVVLRYVSYPDAEDAPFLPGFENVNNPGALNYGLRRFDHIVGNVPELAPVAAYVAGFTGFHEFAEFTAEDVGTAESGLNSMVLANNSETVLIPLNEPVHGTKRRSQIQTFLDHNGGPGVQHIALASDDVLRTLREMQARSAMGGFEFMAAPPPDYYEGVRRRAGDVLSEAQIKECQELGVLVDRDDQGVLLQIGTKPVGDRQTLFLEIIQRIGCMEKDEQGQEYQKGGCGGFGKGNFSQLFKSIEDYEKSLESKQAAAVQGS
modifications: SiHPPDm-F372G Amino Acid Sequence
B6: SbHPPDm-F372G: Sorghum bicolor HPPD mutant F372G, SEQ ID NO: 309 (protein)
chain: MPPTPTTAAATGAAVAAASAEQAAFRLVGHRNFVRVNPRSDRFHTLAFHHVELWCADAASAAGRFSFGLGAPLAARSDLSTGNTAHASLLLRSGALAFLFTAPYAHGADAATASLPSFSAAEARRFAADHGLAVRAVALRVADAEDAFRASVAAGARPAFEPVELGLGFRLAEVELYGDVVLRYVSYPDDADASFLPGFVGVTSPGAADYGLRRFDHIVGNVPELAPAAAYFAGFTGFHEFAEFTAEDVGTTESGLNSMVLANNAENVLLPLNEPVHGTKRRSQIQTYLDHHGGPGVQHMALASDDVLRTLREMQARSAMGGFEFMAPPAPEYYDGVRRRAGDVLTEAQIKECQELGVLVDRDDQGVLLQIGTKPVGDRPTLFLEIIQRIGCMEKDEKGQEYQKGGCGGFGKGNFSQLFKSIEDYEKSLEAKQAAAAQGS
modifications: SbHPPDm-F372G Amino Acid Sequence
B7: AtHPPDm-F372G: Arabidopsis thaliana HPPD mutant F372G, SEQ ID NO: 297 (protein)
chain: MGHQNAAVSENQNHDDGAASSPGFKLVGFSKFVRKNPKSDKFKVKRFHHIEFWCGDATNVARRFSWGLGMRFSAKSDLSTGNMVHASYLLTSGDLRFLFTAPYSPSLSAGEIKPTTTASIPSFDHGSCRSFFSSHGLGVRAVAIEVEDAESAFSISVANGAIPSSPPIVLNEAVTIAEVKLYGDVVLRYVSYKAEDTEKSEFLPGFERVEDASSFPLDYGIRRLDHAVGNVPELGPALTYVAGFTGFHQFAEFTADDVGTAESGLNSAVLASNDEMVLLPINEPVHGTKRKSQIQTYLEHNEGAGLQHLALMSEDIFRTLREMRKRSSIGGFDFMPSPPPTYYQNLKKRVGDVLSDDQIKECEELGILVDRDDQGTLLQIGTKPLGDRPTIFIEIIQRVGCMMKDEEGKAYQSGGCGGFGKGNFSELFKSIEEYEKTLEAKQLVG
modifications: AtHPPDm-F372G Amino Acid Sequence

Each molecule was assayed on Arabidopsis thaliana T1 plants (assay: Topramezone tolerance of transgenic Arabidopsis thaliana T1 plants (pesticide damage grade by bleached leaf area, score, resistance evaluation)). Conditions: topramezone 25 g ai/ha (1x); HPPD F372G mutants, Table 6.
Type: in vivo
Summary of the method: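 Herbicide tolerance was judged per plant on a bleaching scale (grade 0 no bleaching to grade 3 fully bleached) 7 DAT. Topramezone doses were 0, 25, 50 and 100 g ai/ha on 18-day-old T1 and wild-type plants.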
With B1 the Resistance evaluation was “Poorly resistant”. With B2 the Resistance evaluation was “Poorly resistant”. B3 was tested, and the Resistance evaluation was “Moderately resistant”. For B4, the Resistance evaluation was “Poorly resistant”. With B5 the Resistance evaluation was “Moderately resistant”. With B6 the Resistance evaluation was “Moderately resistant”. With B7 the Resistance evaluation was “Poorly resistant”.

Same assay, conditions: topramezone 100 g ai/ha (4x); HPPD F372G mutants, Table 6
In the case of B1, the Resistance evaluation is reported as “Non-resistant”. B2 was tested, and the Resistance evaluation was “Non-resistant”. B3 was tested, and the Resistance evaluation was “Non-resistant”. B4 was tested, and the Resistance evaluation was “Non-resistant”. In the case of B5, the Resistance evaluation is reported as “Poorly resistant”. In the case of B6, the Resistance evaluation is reported as “Non-resistant”. In the case of B7, the Resistance evaluation is reported as “Non-resistant”.
